B2: RVFV glycoprotein Gn head domain (154–469 aa) (domain or fragment)
chain: EDPHLRNRPGKGHNYIDGMTQEDATCKPVTYAGACSSFDVLLEKGKFPLFQSYAHHRTLLEAVHDTIIAKADPPSCDLLSAHGNPCMKEKLVMKTHCPNDYQSAHHLNNDGKMASVKCPPKYELTEDCNFCRQMTGASLKKGSYPLQDLFCQSSEDDGSKLKTKMKGVCEVGVQALKKCDGQLSTAHEVVPFAVFKNSKKVYLDKLDLKTEENLLPDSFVCFEHKGQYKGTMDSGQTKRELKSFDISQCPKIGGHGSKKCTGDAAFCSAYECTAQYANAYCSHANGSGIVQIQVSGVWKKPLCVGYERVVVKRELS

Legend:
Conditions in all cases: both partners purified
[1] = target: B2; assay: BLI; […]; 300 s association, 300 s dissociation; […], global 1:1 model; Octet RED96
[2] = target: T1, LRP1 cluster II (CL II, 786–1165 aa) (human, UniProt Q07954 786-1165); assay: BLI
T1 construct: not shown: FLAG or 6 × HIS (same vector as Gn)
T1 sequence: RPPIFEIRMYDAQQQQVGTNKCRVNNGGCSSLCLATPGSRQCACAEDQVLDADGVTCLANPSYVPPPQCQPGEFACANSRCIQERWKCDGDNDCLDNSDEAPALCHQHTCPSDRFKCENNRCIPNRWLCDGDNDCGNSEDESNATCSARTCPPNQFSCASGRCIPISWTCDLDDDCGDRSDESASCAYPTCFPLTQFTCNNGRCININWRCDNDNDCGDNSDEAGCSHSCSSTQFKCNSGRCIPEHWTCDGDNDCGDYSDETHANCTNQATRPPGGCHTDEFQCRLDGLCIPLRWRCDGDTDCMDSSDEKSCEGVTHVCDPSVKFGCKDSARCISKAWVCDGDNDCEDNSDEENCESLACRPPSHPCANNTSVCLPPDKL

[3] = target: T2, LRP1 cluster IV (CL IV, 3332–3779 aa) (human, UniProt Q07954 3332-3779); assay: BLI
[4] = target: T1, LRP1 cluster II (CL II, 786–1165 aa); assay: BLI; […]; 300 s association, 300 s dissociation; […], global 1:1 model; Octet RED96
[5] = target: T2, LRP1 cluster IV (CL IV, 3332–3779 aa); assay: as above

T2 sequence (Q07954 3332-3779): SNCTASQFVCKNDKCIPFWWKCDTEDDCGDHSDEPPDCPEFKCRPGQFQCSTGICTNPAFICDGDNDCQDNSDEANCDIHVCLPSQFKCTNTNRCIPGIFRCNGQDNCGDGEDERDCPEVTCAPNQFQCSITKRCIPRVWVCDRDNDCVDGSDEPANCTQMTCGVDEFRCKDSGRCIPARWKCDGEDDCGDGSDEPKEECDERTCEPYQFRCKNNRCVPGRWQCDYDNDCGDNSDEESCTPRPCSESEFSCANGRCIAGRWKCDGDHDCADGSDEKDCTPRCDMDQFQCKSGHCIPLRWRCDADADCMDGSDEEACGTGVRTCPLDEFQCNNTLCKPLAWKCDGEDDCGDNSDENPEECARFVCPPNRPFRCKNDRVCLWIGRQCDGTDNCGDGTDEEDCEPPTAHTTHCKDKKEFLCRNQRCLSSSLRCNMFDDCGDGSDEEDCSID

B1: LRP1 CL IV-B, repeats A25–A28 (3492–3649 aa) (domain or fragment)
chain: not shown
B1 was tested, and the Kd [1] was 36 nM.

Work on B2 yielded a Kd [2] of 220 nM, a Kd [3] of 120 nM and a Kd [4] of 89 nM. The Kd [5] was 56 nM.

B3: LRP1 CL IV-A, repeats A21–A24 (3332–3491 aa) (domain or fragment)
chain: not shown
Work on B3 yielded a Kd [1] of 72 nM.
